In patent US11541133B2, “Treatment of cancer cells overexpressing somatostatin receptors using ocreotide derivatives chelated to radioisotopes” (RADIOMEDIX INC., priority 2017, dated 2023):

Experiments:
AR42J tumors = experiment: Combination therapy efficacy study with ADRUCIL in AR42J xenograft athymic nude mice (FIGS. 42-43); type: in vivo; conditions: ADRUCIL alone, 15 mg/kg once weekly, nine injections
Experimental: Athymic nude mice are given AR42J tumors and allowed to grow until tumors reach about 300 mm^3. Mice in treatment groups are injected with 100 μl of 15 mg/kg ADRUCIL® once weekly for a total of nine injections. 10 μCi of ^212Pb-DOTAMTATE is given at either 2 week or 3 week intervals for a total of 3 treatments. The ^212Pb-DOTAMTATE is given within 24 hours after an ADRUCIL® treatment. 10 μCi per 4.1 ng peptide is used, and the cumulative injection dose is 30 μCi. The animals are monitored daily, and calipered and weighed 3 times per week. The animals are sacrificed when termination criteria are met.

[1] = Dosimetry and bio-distribution of ^203Pb-DOTAMTATE in patients with somatostatin expressing neuroendocrine tumors (SPECT-CT); type: in vivo, human
Experimental: Total of 6 patients are enrolled in the first-in-human open-label, single-dose, dosimetry and bio-distribution of ^203Pb-DOTAMTATE.
All patients (1 female and 5 male) receive an average dose of 4.94 (4.66-5.26) mCi of ^203Pb-DOTAM-TATE and undergo 1 hour, 4 hour, 24 hour and 48 hour post injection SPECT-CT scans. Ethnicity of all 6 patients is Caucasian.
Pharmacokinetic data from ^203Pb-DOTAMTATE imaging are used to calculate the absorbed dose from ^203Pb-DOTAMTATE imaging. The data is then extrapolated to calculate the expected tissue absorbed doses following the administration of ^212Pb-DOTAMTATE for future Targeted Alpha particle Therapy (TAT).

[2] = Repeat-dose (fractionated vs single dose) toxicity study in tumor-free CD-1 mice (FIGS. 37-39); type: in vivo
Experimental: Female, tumor free CD-1 mice are injected with one dose of 40 μCi ^212Pb-DOTAMTATE, 2 doses of 20 μCi ^212Pb-DOTAMTATE or three doses of 15 μCi ^212Pb-DOTAMTATE. Animals are given three weeks between doses for these who received multiple treatments. Animals are weighed three times per week and monitored daily for signs of termination criteria (15% weight loss over 2 days or 20% loss from initial weight, lack of grooming over 5 days, lethargy/weakness over 3 days, reduced motility, hunched back, diarrhea, hypothermia). Blood for hematological analysis is collected weekly.

[3] = Non-GLP dose range finding (single dose acute toxicity) study in athymic nude mice (FIGS. 35-36); type: in vivo
Experimental: Female athymic nude mice (˜20 g) are injected with a single dose of 10 μCi, 20 μCi, 40 μCi or 60 μCi of ^212Pb-DOTAMTATE or control PBS intravenously. Five animals are assigned per treatment group. Animals are weighed three times per week and monitored daily for signs of termination criteria (15% weight loss over 2 days, lack of grooming over 5 days, lethargy/weakness over 3 days, reduced motility, hunched back, diarrhea, hypothermia). The study is concluded after 4 weeks.

in vivo [4] = experiment: in vivo; design: species or system mice; conditions: CD-1, mouse, iv, 10 uCi, total radioactivity
Experimental: CD-1 mice are injected with 10 μCi of ^212Pb-DOTAMTATE as part of a biodistribution study. Blood is collected at 15 minutes; 1 hour and 4 hours post injection. Body weights determined by taking the average of 10 CD-1 mice at 7 weeks old, the age of the mice in this study and using this weight, blood volume is estimated using the equation by Lee and Blaufox (1985). % ID in blood mice is then calculated for 5 mice per group.

[5] = mouse, in vivo
Source text: Signs of acute toxicity are examined in a non-GLP repeat dose study to compare single administration vs fractionation (described below). This study is designed based on observations made in athymic nude mice. […] This observation is correlated with the GLP findings that hematological toxicity in the surviving animals from the higher dose groups is recoverable within a month. As renal and hepatic toxicity is cumulative a single dose treatment vs multiple doses leading to the same cumulative dose should be similar (Barendsen, 1964). Fractionated administration of radioactivity three weeks apart compared to a single injection had very similar toxicity profile.

in vivo [6] = experiment: in vivo; design: species or system mice
Experimental: Female CD-1 mice (˜20 g) are injected with a single dose of ^212Pb-DOTAMTATE. Specifically, 10 μCi of ^212Pb-DOTAMTATE is diluted in PBS and 100 μl is administered to the mice via intravenous injection. The animals are sacrificed at predetermined time points of 15 minutes, 1 hour, 4 hours and 24 hours and 48 hours post drug injection. Tissues are collected from each animal and evaluated for amount of radioactive material in each organ by auto gamma counter. Specifically, organs are harvested, weighed and transferred to polypropylene tubes. The tubes are placed in a calibrated Wizard2 γ-counter (PerkinElmer, Shelton, Conn.) and counted for three minutes (204-274 keV). A standard consisting of one-twentieth of the injection volume is counted with each time point. The background is automatically subtracted from the counts. The standard is also used for decay correction. % ID/g is calculated for each organ collected.

[7] = female, CD-1, mouse, iv, 10 uCi, total radioactivity

Experimental for AR42J cells: Thirty-thousand (3×10^4) AR42J cells are grown in the wells of a 96 well plate for 2 days. Cells are then incubated for 4 hours with increasing doses of ^212Pb-DOTAMTATE ranging from 0 nCi/ml to 800 nCi/ml. Eight wells per group are treated. Cells are washed with PBS to remove drug and then fresh media is introduced. Cells are allowed to incubate for 6 days at 37° C. Cells are then rinsed and incubated with fluorescein diacetate for 30 minutes and read with a fluorimeter at 485/535 nm. Percentage of viable cells is calculated based on untreated cells as a control.

SMILES: O=c1[nH]cc(F)c(=O)[nH]1 [ADRUCIL®]
- median survival (AR42J tumors): 2.4 weeks

SMILES: C[C@@H](O)[C@H](NC(=O)[C@@H]1CSSC[C@H](NC(=O)[C@@H](Cc2ccccc2)NC(=O)CN2CCN(CC(N)=O)CCN(CC(N)=O)CCN(CC(N)=O)CC2)C(=O)N[C@@H](Cc2ccc(O)cc2)C(=O)N[C@H](Cc2c[nH]c3ccccc23)C(=O)N[C@@H](CCCCN)C(=O)N[C@@H]([C@@H](C)O)C(=O)N1)C(=O)O [^212Pb-DOTAMTATE, ((4R,7S,10S,13R,16S,19R)-13-((1H-indol-3-yl)methyl)-10-(4-aminobutyl)-16-(4-hydroxybenzyl)-7-((R)-1-hydroxyethyl)-6,9,12,15,18-pentaoxo-19-((R)-3-phenyl-2-(2-(4,7,10-tris(2-amino-2-oxoethyl)-1,4,7,10-tetraazacyclododecan-1-yl)acetamido)propanamido)-1,2-dithia-5,8,11,14,17-pentaazacycloicosane-4-carbonyl)-L-threonine chelated to M, metal not drawn]
- cumulative dose corresponding to the maximum theoretical absorbed dose estimate to kidneys of 23 Gy ([1]; human, in vivo): 32.7 mCi
- dose per therapy cycle corresponding to the maximum theoretical absorbed kidney dose of 23 Gy ([1]; patients, dosimetry analysis, 3 cycles): 10.9 mCi
- animals that died ([2]; 1×40 μCi, nine days after injection): ~40%
- animals that died ([2]; 2×20 μCi, within four weeks of the study, one week after the second dose): 50%
- mortality ([2]; 3×15 μCi, three weeks between doses): no mortality
- animals surviving until the end of the four-week study ([3]; single dose 10 μCi and 20 μCi groups): 100%
- time of death of all animals ([3]; single dose 60 μCi): 7 days post injection
- tissue uptake dose at 1 h (in vivo [4]): 1.8 %ID
- tissue uptake dose at 4 h (in vivo [4]): 0.1 %ID
- cytotoxic effect (AR42J cells): complete cell death
- toxicity compared with single 40 μCi dose [5]: same toxicity profile
- tissue uptake at 1 h (in vivo [6]; [7]): ~30 %ID/g
- tissue uptake at 24 h (in vivo [6]; [7]): ~10 %ID/g
- percent-injected dose per gram, all organs with the exception of the kidneys (in vivo [6]; mouse): less than 10%
